PMC7284552

Test system: T1, A1S_0316 (putative IclR-type transcription factor) (Acinetobacter baumannii ATCC 17978), ORF:5d858888
T1 sequence: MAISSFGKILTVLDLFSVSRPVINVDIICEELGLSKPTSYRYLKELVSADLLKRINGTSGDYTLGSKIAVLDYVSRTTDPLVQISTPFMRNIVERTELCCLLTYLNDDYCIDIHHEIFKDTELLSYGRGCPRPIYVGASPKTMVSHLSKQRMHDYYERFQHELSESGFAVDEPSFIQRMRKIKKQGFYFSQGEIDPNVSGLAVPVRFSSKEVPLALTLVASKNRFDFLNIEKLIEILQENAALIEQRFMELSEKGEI
Assay: competition
Conditions: EMSA: 5 min at 37 C, 5% native PAGE (40:1), 100 V 1.5 h; binding buffer, salt and pH not stated

GGCAAGCGAAACAAAGAAGTTGTTCATATTTGCTAGTTGGGTAAAAAATTACCGAATTACAACGGAAATTGTAAGTAATTTTGTCAATAATTTACTTGATTAAAATTATCAAGCACTTGGAAAGTCTATCAAGTGTTTGTATGATTCAAATGTGAATAGCTTAAAAATAATACTGGGGTAAAAAAATATCTCAGGGGCCAATAAATTTAGGCTGAGCTTGAACAACAATTGTTATCTCTGGAGGATATCCATGAAATTGAGTCGTATTGCACTTGCTACTATGCTTGTTGCTGCTCCATT (double strand) [AbOmpA promoter (AbOmpAp), -231 to +100]
binding: binds
